US20110311550A1 (Scripps Research, published 2011)

Key:
[1] = target: T1, vaccinia-expressed E1E2 complex, isolate HCV-1 (genotype 1a) (hepatitis C virus, isolate HCV-1, UniProt P26664 192-383; P26664 384-746); experiment: competition ELISA on HCV-1 E1E2; competitor m5 (AR3B)
[2] = target: T1, vaccinia-expressed E1E2 complex, …; experiment: competition ELISA on HCV-1 E1E2; competitor m29 (2/69A)
[3] = target: T1, vaccinia-expressed E1E2 complex, …; experiment: competition ELISA on HCV-1 E1E2; competitor m3 (AR2A)
[4] = target: T1, vaccinia-expressed E1E2 complex, …; experiment: competition ELISA on HCV-1 E1E2; competitor m4 (AR3A)
[5] = target: T1, vaccinia-expressed E1E2 complex, …; experiment: competition ELISA on HCV-1 E1E2; competitor m23 (H53)
[6] = target: E1E2 (Env) of HCV isolate J6 (genotype 2a) on HCVpp (hepatitis C virus, isolate J6, UniProt P26660 192-383; P26660 384-750); experiment: cell-based or functional assay
[7] = target: T2, E1E2 complex of HCV isolate H77 (genotype 1a), wild type (HCV isolate H77, UniProt P27958 192-383; P27958 384-746); experiment: competition ELISA on H77 E1E2; competitor m39 (Fab N3)
[8] = target: T1, vaccinia-expressed E1E2 complex, …; experiment: competition ELISA on HCV-1 E1E2; competitor m27 (3/11)
[9] = target: T1, vaccinia-expressed E1E2 complex, …; experiment: competition ELISA on HCV-1 E1E2; competitor m32 (AP320)
[10] = target: T2, E1E2 complex of HCV isolate H77 …; experiment: competition ELISA on H77 E1E2; competitor m37 (Fab N1)
[11] = target: T1, vaccinia-expressed E1E2 complex, …; experiment: competition ELISA on HCV-1 E1E2; competitor m35 (ALP98)
[12] = target: T2, E1E2 complex of HCV isolate H77 …; experiment: competition ELISA on H77 E1E2; competitor m46 (Fab P4)
[13] = target: T1, vaccinia-expressed E1E2 complex, …; experiment: competition ELISA on HCV-1 E1E2; competitor m30 (7/16B)
[14] = target: H77 E1E2 mutant D535A (HCV isolate H77, UniProt P27958 192-383; P27958 384-746); experiment: ELISA, alanine mutant E1E2
[15] = target: H77 E1E2 mutant P491A (HCV isolate H77, UniProt P27958 192-383; P27958 384-746); experiment: ELISA, alanine mutant E1E2
[16] = target: H77 E1E2 mutant W549A (HCV isolate H77, UniProt P27958 192-383; P27958 384-746); experiment: ELISA, alanine mutant E1E2
[17] = target: H77 E1E2 mutant P544A (HCV isolate H77, UniProt P27958 192-383; P27958 384-746); experiment: ELISA, alanine mutant E1E2
[18] = target: H77 E1E2 mutant V538A (HCV isolate H77, UniProt P27958 192-383; P27958 384-746); experiment: ELISA, alanine mutant E1E2
[19] = target: H77 E1E2 mutant N417A (HCV isolate H77, UniProt P27958 192-383; P27958 384-746); experiment: ELISA, alanine mutant E1E2
[20] = target: H77 E1E2 mutant W487A (HCV isolate H77, UniProt P27958 192-383; P27958 384-746); experiment: ELISA, alanine mutant E1E2
[21] = target: H77 E1E2 mutant T526A (HCV isolate H77, UniProt P27958 192-383; P27958 384-746); experiment: ELISA, alanine mutant E1E2
[22] = target: H77 E1E2 mutant Y527A (HCV isolate H77, UniProt P27958 192-383; P27958 384-746); experiment: ELISA, alanine mutant E1E2
[23] = target: H77 E1E2 mutant G523A (HCV isolate H77, UniProt P27958 192-383; P27958 384-746); experiment: ELISA, alanine mutant E1E2
[24] = target: H77 E1E2 mutant F550A (HCV isolate H77, UniProt P27958 192-383; P27958 384-746); experiment: ELISA, alanine mutant E1E2

B1: MAb AR3C (antibody, V domains shown)
VH: LEQSGAEVKKPGSSVKVSCETSGGTLDNYALNWVRQAPGQGLEWIGGVVPLFGTTRNAQKFQGRVTISDDKSTGTGHMELRSLRSEDTAVYYCVRSVTPRYCGGGFCYGEFDYWGQGTLVTVSS
VL: ELTQSPATLSVSPGERATLSCRASQSVSSNLAWYQQKPGQAPRLLIYGASTRATGIPARFSGSGSGTEFTLTVSRLEPEDSAVYFCQQYYRSPLTFGGGTKVEIKR
notes: also called IgG1 of Fab H3
- % residual binding [1]: 12%
- % residual binding [2]: 68%
- % residual binding [3]: 83%
- % residual binding [4]: 9%
- % residual binding [5]: 77%
- Neutralizing activity (IC50) on HCVpp [6]: 10 µg/mL
- % residual binding [7]: 92%
- % residual binding [8]: 44%
- % residual binding [9]: 81%
- % residual binding [10]: 146%
- % residual binding [11]: 99%
- % residual binding [12]: 155%
- % residual binding [13]: 99%

B2: MAb AR2A (antibody, V domains shown)
VH: LEQSGAEMKKPGASLKVSCKTSGYTFDDYGVTWVRQAPGQGLEWMGWISAYSGNTFYARKFQGRVTMTTDPSTRTAYMELRSLRSDDTAVYFCARDRGLAINGVVFPYFGLDVWGQGTTVTVSS
VL: ELTQSPVSLPVTPGEPASISCRSSQSLLHSNGNHYLDWYLQKPGQSPQLLMYLGSNRASGVPDRFSGSGSGTDFTLKISRVEAEDVGVYYCMQGLQTPWTFGQGTKVEIKR
notes: also called IgG1 of Fab G
- % residual binding [1]: 92%
- % residual binding [2]: 82%
- % residual binding [3]: 15%
- % residual binding [4]: 76%
- % residual binding [5]: 107%
- Neutralizing activity (IC50) on HCVpp [6]: > 50 µg/mL
- binding vs wild-type E1E2 [14]: 133%
- binding vs wild-type E1E2 [15]: 123%
- binding vs wild-type E1E2 [16]: 151%
- binding vs wild-type E1E2 [17]: 126%
- binding vs wild-type E1E2 [18]: 62%
- binding vs wild-type E1E2 [19]: 58%
- binding vs wild-type E1E2 [20]: 93%
- binding vs wild-type E1E2 [21]: 101%
- binding vs wild-type E1E2 [22]: 149%
- binding vs wild-type E1E2 [23]: 129%
- binding vs wild-type E1E2 [24]: 156%
- % residual binding [7]: 69%
- % residual binding [8]: 94%
- % residual binding [9]: 70%
- % residual binding [10]: 85%
- % residual binding [11]: 94%
- % residual binding [12]: 79%
- % residual binding [13]: 95%

B3: MAb AR1B (antibody, V domains shown)
VH: LESGGGLVQPGGSLRLSCEASGYYFSSFAMSWVRQTPGKGLEWVSSIAGGTLGRTSYRDSVKGRFTISRDNSKNTVFLHMNNLRPEDTAVYYCAKDPLLFAGGPNWFDHWGQGTLVTVSS
VL: not shown
notes: also called IgG1 of Fab D1
- % residual binding [1]: 80%
- % residual binding [2]: 85%
- % residual binding [3]: 89%
- % residual binding [4]: 76%
- % residual binding [5]: 12%
- Neutralizing activity (IC50) on HCVpp [6]: > 50 µg/mL
- binding vs wild-type E1E2 [14]: 121%
- binding vs wild-type E1E2 [15]: 118%
- binding vs wild-type E1E2 [16]: 0%
- binding vs wild-type E1E2 [17]: 16%
- binding vs wild-type E1E2 [18]: 52%
- binding vs wild-type E1E2 [19]: 54%
- binding vs wild-type E1E2 [20]: 70%
- binding vs wild-type E1E2 [21]: 48%
- binding vs wild-type E1E2 [22]: 83%
- binding vs wild-type E1E2 [23]: 33%
- binding vs wild-type E1E2 [24]: 257%
- % residual binding [7]: 92%
- % residual binding [8]: 61%
- % residual binding [9]: 83%
- % residual binding [10]: 95%
- % residual binding [11]: 92%
- % residual binding [12]: 95%
- % residual binding [13]: 91%

B4: MAb AR1A (antibody, V domains shown)
VH: LEQSGAEVKKPGSSVKVSCRASGSPYSSYTITWVRQAPGQGLEWMGGIILMTGKANYAQKFQGRVTITADRATATAYMEMSSLTSDDTAIYYCARDPYVYAGDDVRSLSRWGQGTPVIVSS
VL: not shown
notes: also called IgG1 of Fab B2
- % residual binding [1]: 53%
- % residual binding [2]: 86%
- % residual binding [3]: 100%
- % residual binding [4]: 44%
- % residual binding [5]: 20%
- Neutralizing activity (IC50) on HCVpp [6]: > 50 µg/mL
- binding vs wild-type E1E2 [14]: 235%
- binding vs wild-type E1E2 [15]: 119%
- binding vs wild-type E1E2 [16]: 0%
- binding vs wild-type E1E2 [17]: 69%
- binding vs wild-type E1E2 [18]: 17%
- binding vs wild-type E1E2 [19]: 17%
- binding vs wild-type E1E2 [20]: 89%
- binding vs wild-type E1E2 [21]: 81%
- binding vs wild-type E1E2 [22]: 61%
- binding vs wild-type E1E2 [23]: 112%
- binding vs wild-type E1E2 [24]: 379%
- % residual binding [7]: 71%
- % residual binding [8]: 66%
- % residual binding [9]: 84%
- % residual binding [10]: 83%
- % residual binding [11]: 92%
- % residual binding [12]: 85%
- % residual binding [13]: 86%

B5: MAb AR3D (antibody, V domains shown)
VH: LEQSGAEVKKPGSSVKVSCKASGDTFRSYVITWARQAPGQGLEWMGAIIPFFGTTNLAQKFQGRVTITADESTKTVYMDLSSLRSDDTAVYYCAKAGDLSVGGVLAGGVPHLRHFDPWGQGTLVTVSS
VL: ELTQSPGTLSLSPGERATLSCRAGQTVASNSLAWYQHKPGQAPRLLIYGASIRASGIPDRFSGSGSGTDFTLTISRLEPEDFAVYYCQQYGLSSTFGQGTRLEIKR
notes: also called IgG1 of Fab L4
- % residual binding [1]: 15%
- % residual binding [2]: 56%
- % residual binding [3]: 75%
- % residual binding [4]: 13%
- % residual binding [5]: 74%
- Neutralizing activity (IC50) on HCVpp [6]: 50 µg/mL
- binding vs wild-type E1E2 [14]: 32%
- binding vs wild-type E1E2 [15]: 204%
- binding vs wild-type E1E2 [16]: 274%
- binding vs wild-type E1E2 [17]: 318%
- binding vs wild-type E1E2 [18]: 95%
- binding vs wild-type E1E2 [19]: 74%
- binding vs wild-type E1E2 [20]: 119%
- binding vs wild-type E1E2 [21]: 135%
- binding vs wild-type E1E2 [22]: 119%
- binding vs wild-type E1E2 [23]: 48%
- binding vs wild-type E1E2 [24]: 320%
- % residual binding [8]: 37%
- % residual binding [9]: 77%
- % residual binding [10]: 131%
- % residual binding [11]: 97%
- % residual binding [12]: 145%
- % residual binding [13]: 94%
